The results in this text go back to patent US20240059769A1 (BIOLOJIC DESIGN, published 2024).

Like-named read-outs stand apart in the source and are kept apart here.

The target of assay [1] is T1, recombinant human IL-13 (human, UniProt P35225 35-146). As to the kind of experiment: cell-based or functional assay.
The target of assay [2] is T1, recombinant human IL-13. As to the kind of experiment: cell-based or functional assay. This is another data set of the same source.
The target in assay [3] is T2, hTSLP-His (human, UniProt Q969D9 29-159, limits assumed).
T2 construct: bought; also called hTSLP (ACROBiosystems TSP-H52Hb); not shown: His tag
Briefly: competition ELISA, 7 nM TSLP-His pre-incubated with antibody; competitor Tezepelumab coated.

Assay [4] deals with T3, human TSLP (human, UniProt Q969D9 29-159).
T3 construct: also called hTSLP; rhTSLP
Briefly: SPR. (In SPR one partner is held on a chip, and binding of the other changes the refractive index at the surface.)

Assay [5] addresses T1, recombinant human IL-13. Briefly: SPR.
Assay [6] deals with T4, cynomolgus monkey (cyno) TSLP (cynomolgus monkey, UniProt A0A7N9CAT7 29-159).
T4 construct: also called cTSLP; cynomolgus TSLP
T4 sequence (A0A7N9CAT7 entry or part of it): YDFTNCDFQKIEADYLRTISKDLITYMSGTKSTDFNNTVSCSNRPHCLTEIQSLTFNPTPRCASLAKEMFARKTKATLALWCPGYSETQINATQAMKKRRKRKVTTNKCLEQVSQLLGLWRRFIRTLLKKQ
As to the kind of experiment: SPR.

Assay [7] addresses T3, human TSLP. Briefly: SPR. This is another data set of the same source.
Assay [8] has as its target T1, recombinant human IL-13. As to the kind of experiment: SPR. The source holds these as a separate data set.
Assay [9] deals with T5, recombinant cynomolgus monkey IL-13 (cynomolgus monkey, UniProt Q0PW92 21-132).
T5 construct: bought; also called rc-IL-13; cIL-13
T5 sequence (Q0PW92 entry or part of it): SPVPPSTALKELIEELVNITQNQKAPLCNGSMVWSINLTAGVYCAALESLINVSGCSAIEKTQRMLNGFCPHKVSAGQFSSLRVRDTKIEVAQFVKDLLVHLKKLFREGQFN
Briefly: SPR.

Assay [10] has as its target T2, hTSLP-His. Briefly: cell-based or functional assay.

T1 sequence (P35225 35-146 limits assumed): as the sequence (Q0PW92 entry or part of it) above, with S1G, K10R, V42M, N67S, R83H, V100L counted along it

B1: BDG38.106 (antibody, V domains shown)
VH: QMQLVESGGGVVQPGRSLTLSCAASGFEFRTYGMHWVRQAPGKGLEWVAVIWDDGSNTVYADSVKGRFTITRDNSKNTLNLQMNSLRVEDTAVYYCVRAPQWYLTAEAFDLWGQGTMVTVSS
VL: SYILTQPPSVSVAPGQTATITCGGNLIGSRLVHWYQQKPGQAPVLVIYDDSDRPSRIPERFSGSNIGNTATLTIEDVEEGDEADYYCQVWDHYSDHMVFGGGTKLTVL
notes: IgG1
On to B1, for which the “IC50 CD23” value in assay [1] was 162 pM. The “HEK-IL-13 [nM] (IC50, STAT6 reporter)” value in assay [2] was found to be 0.0113 nM. Further, the IC50 in [3] is 10100 pM. Also, in [4], the Kd stood at 52.5 pM, the koff came out at 0.000257 s⁻¹ and the kon was determined as 4.9e+06 M⁻¹ s⁻¹. In [5], the Kd is 34.6 pM, the koff was determined as 0.000205 s⁻¹ and the kon is 5.93e+06 M⁻¹ s⁻¹.

B2: BDG38.125 (antibody, V domains shown)
VH: QMQLVESGGGVVQPGRSLRLSCAASGFEFRTYGMHWVRQAPGKGLEWVAVIWDDGSNTHYADSVKGRFTITRDNSKNTLNLQMNSLRAEDTAVYYCVRAPQWYLTAEAFDLWGQGTMVTVSS
VL: SYVLTQPPSVSVAPGETATITCGGNLIGARLVHWYQQKPGQAPVLVIYDDSDRPSRIPERFSGSNIGNTATLTIERVEEGDEADYYCQVWDYSSDHMVFGGGTKLTVL
notes: IgG1
As for B2, the Kd in assay [6] stood at 45.2 pM; in assay [7], 25.5 pM; in [8], 7.78 pM; in assay [9], 38.9 pM. Moreover, the koff in [6] was 0.000119 s⁻¹; in assay [7], 0.000121 s⁻¹; in [8], 4.76e-05 s⁻¹; in [9] it was 0.00135 s⁻¹. Besides, the on-rate (kon) was 2.64e+06 M⁻¹ s⁻¹ in assay [6], 4.76e+06 M⁻¹ s⁻¹ in assay [7], 6.12e+06 M⁻¹ s⁻¹ in assay [8] and 3.46e+07 M⁻¹ s⁻¹ in [9]. Also, the “IC50 CD23” value in [1] turned out to be 52.7 pM. Also, the “HEK-IL-13 [nM] (IC50, STAT6 reporter)” value in assay [2] came to 0.0562 nM. This molecule displayed a half-inhibitory concentration (IC50) in assay [3] of 8440 pM.

B3: BDG38.131 (antibody, V domains shown)
VH: QMQLVESGGGVVQPGRSLTLSCAASGFEFRTYGMHWVRQAPGKGLEWVAVIWDDGSNTHYADSVKGRFTITRDNSKNTLNLQMNSLRAEDTAVYYCVRAPQWYLTAEAFDLWGQGTMVTVSS
VL: SYILTQPPSVSVAPGETATITCGGNLIGAKLVHWYQQKPGQAPVLVIYDDSDRPSRIPERFSGSNIGNTATLTISDVEEGDEADYYCQVWDYYSNTMVFGGGTKLTVL
notes: IgG1
For B3, the “IC50 CD23” value in [1] is 70 pM. Besides, the “HEK-IL-13 [nM] (IC50, STAT6 reporter)” value in assay [2] is 0.0443 nM. Moreover, in assay [7], the Kd was 0.0746 pM, the koff stood at 2.85e-07 s⁻¹ and the on-rate constant (kon) came to 3.82e+06 M⁻¹ s⁻¹. In [8], the Kd was found to be 179 pM, the koff came to 0.000356 s⁻¹ and the kon amounted to 2e+06 M⁻¹ s⁻¹.

B4: BDG38.117 (antibody, V domains shown)
VH: QMQLVESGGGVVQPGRSLTLSCAASGFEFRTYGMHWVRQAPGKGLEWVGVIWDDGSNTHYADSVKGRFTITRDNSKNTLNLQMNSLRAEDTAVYYCARAPQWYLTAEAFDLWGQGTMVTVSS
VL: SYVLTQPPSVSVAPGETATITCGGNLIGAKLVHWYQQKPGQAPVLVIYDDSDRPSRIPERFSGSNIGNTATLTIEDVEAGDEADYYCQVWDYSSDTMVFGGGTKLTVL
notes: IgG1
Take B4: the Kd in [6] was determined as 8.9 pM; in assay [4], 3.82 pM; in assay [5], 14.9 pM; in [9] it was 36.7 pM. Further, the dissociation rate constant (koff) was determined as 0.000452 s⁻¹ in assay [6], 2.7e-05 s⁻¹ in [4], 0.000103 s⁻¹ in assay [5] and 0.00144 s⁻¹ in assay [9]. In addition, the kon in assay [6] came out at 5.08e+07 M⁻¹ s⁻¹; in assay [4], 7.07e+06 M⁻¹ s⁻¹; in [5], 6.94e+06 M⁻¹ s⁻¹; in [9] it was 3.94e+07 M⁻¹ s⁻¹. Further, in assay [1], the “IC50 CD23” value is 121 pM. Further, in assay [2], the “HEK-IL-13 [nM] (IC50, STAT6 reporter)” value was 0.0801 nM. In addition, in assay [3], the IC50 worked out at 6140 pM. The “IC50 [pM], STAT5 phosphorylation inhibition in MUTZ5 cells” value in [10] was 0.363 pM.

Usually IC50 stands for the midpoint of a concentration-inhibition curve. As a reminder, the Kd is the free concentration of one partner at which half of the binding sites on the other are occupied at equilibrium, for simple one-to-one binding. Usually koff stands for a measure of how fast the partners let go of each other. As a reminder, the kon is the second-order rate constant of association.
